Laboratory results as given in patent US20260234241A1 (SHANGHAI QILU PHARMACEUTICAL RESEARCH AND DEVELOPMENT CENTRE, published 2026).
Residue numbers refer to the chain shown, from its start. Where two headings read alike, the source gives them in different places.

Legend:
human BCMA (on cells) [1] = target: T1, human BCMA (on cells) (human, UniProt Q02223 1-184); experiment: FACS, human BCMA-CHOK1 cells, anti-human IgG Fc PE secondary, MFI
T1 construct: Full length, on transfected CHOK1 cells; also used as the target of the BCMA/CD3 bispecific Teclistamab on NCI-H929 and RPMI8226 cells; also called Human BCMA CHOK1
T1 sequence: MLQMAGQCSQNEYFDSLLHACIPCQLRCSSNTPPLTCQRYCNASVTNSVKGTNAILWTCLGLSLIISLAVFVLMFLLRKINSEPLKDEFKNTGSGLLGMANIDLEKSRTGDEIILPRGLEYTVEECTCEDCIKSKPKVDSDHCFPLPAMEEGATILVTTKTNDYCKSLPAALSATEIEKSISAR

human BCMA (on cells) [2] = target: T1, human BCMA (on cells); experiment: as above; remark: listed apart in the source
[3] = target: T2, cynomolgus monkey BCMA (on cells) (cynomolgus monkey, UniProt Q02223 1-184 (human entry)); experiment: FACS, cynomolgus monkey BCMA-CHOK1 cells, anti-human IgG Fc PE secondary, MFI
T2 construct: also called cyno-BCMA; cyno BCMA CHOK1
T2 sequence (Q02223 other isoform, or with tags, fused parts or gaps): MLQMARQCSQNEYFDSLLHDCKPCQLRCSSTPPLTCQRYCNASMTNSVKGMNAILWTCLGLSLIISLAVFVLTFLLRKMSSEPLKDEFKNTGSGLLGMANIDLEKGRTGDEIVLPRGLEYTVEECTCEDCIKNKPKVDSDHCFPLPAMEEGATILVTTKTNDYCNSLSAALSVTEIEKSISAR

[4] = target: T2, cynomolgus monkey BCMA (on cells); experiment: FACS on cynomolgus BCMA-CHOK1 cells
human BCMA (on cells) [5] = target: T1, human BCMA (on cells); experiment: FACS on human BCMA-CHOK1 cells

B1: 19CH-16 (antibody, IgG1, V domains shown)
VH: QGQMQQSGAELVKPGTSVKLSCKTSGFTFRSSYISWLQQKPGQSLEWIAWIYAGSGNTDYNQKFTGKAQLTVDTSSSTAYMQFSSLTTEDSAIYYCARHYDPPHYFDYWGQGTTLTVSS
VL: QIVLTQSPAIMSASPGEKVTMTCSASSGVSHMHWYQQKSGTSPKRWIYDTSKLTSGVPTRFSGTGSGTSYSLSISSMEAEDAATYYCQQWSRNPWTFGGGTKLEIK
notes: also called anti-BCMA chimeric antibody (19CH-16) derived from mouse hybridoma
- EC50 (read off the curve) (human BCMA (on cells) [1]): ~2 nM

B2: 19CH-16H2L2 (antibody, IgG1, V domains shown)
VH: QVQLVQSGAEVKKPGASVKVSCKASGFTFRSSYISWVRQAPGQGLEWIAWIYAGSGNTDYNQKFTGRVTMTVDTSTSTVYMELSSLRSEDTAVYYCARHYDPPHYFDYWGQGTLVTVSS
VL: DIQLTQSPSSLSASVGDRVTITCSASSGVSHMHWYQQKPGKAPKRWIYDTSKLTSGVPSRFSGSGSGTDFTLTISSLQPEDFATYYCQQWSRNPWTFGQGTKVEIK
notes: also called humanized anti-BCMA antibody (19CH-16H2L2)
- EC50 (read off the curve) (human BCMA (on cells) [2]): ~1 nM
- EC50 (read off the curve) [3]: ~3 nM

B3: 19CH-16H2L2-QT (antibody, V domains shown)
VH: B2 VH with N57Q
VL: B2 VL
- EC50 [4]: 9.05 nM
- EC50 (human BCMA (on cells) [5]): 7.76 nM
